Data taken from the supplement of paper PMC10567573.
± gives the standard deviation.

Assay: protein stability index of a GFP-peptide fusion (GPS, HEK-293T) (PSI 1-6); higher = more stable
[1] = treatment: DMSO, c terminus: a fixed tail appended
[2] = treatment: MLN4924 1 uM, 8 h, c terminus: a fixed tail appended
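Note: 24-mer peptide tiles fused after GFP, lentivirally expressed, FACS-sorted into six equal bins by GFP/DsRed ratio, decoded by Illumina sequencing, PSI is the read-weighted mean bin number.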

| Sequence | protein stability index [1] | protein stability index [2] | protein stability index (treatment: DMSO, c terminus: native) | protein stability index (treatment: MLN4924 1 uM, 8 h, c terminus: native) |
| --- | --- | --- | --- | --- |
| EELSVLEVFEGREDSILGDPKKLL [MAGEA3] | 4.38 ± 0.28 | 4.75 ± 0.23 |  |  |
| VNGSWYIQDLCEMLGKYGSSLEFT [CASP6] | 2.95 ± 0.65 | 2.67 ± 0.55 |  |  |
| RAARDYKIQNHGHRVLQRLEQRRQ [FCHSD1] | 3.82 ± 0.079 | 4.07 ± 0.26 |  |  |
| GLLQDQGSGLSSRFEEPKGPPARQ [CBY2] | 4.89 ± 0.29 | 5.09 ± 0.23 |  |  |
| GDWHSPTLIREKSFGACLREETPR [ELOA2] | 3.61 ± 0.3 | 3.76 ± 0.32 |  |  |
| YLSPLERKRLAREMQLSEVQIKTW [VENTX] | 2.5 ± 0.2 | 2.7 ± 0.24 |  |  |
| VASGLQFDVETRHVFIGDHSGQVT [WDFY2] | 2.91 ± 0.54 | 3.12 ± 0.46 |  |  |
| EKEIEEATKKLGFKHPVIGVHVRR [FUT8] | 3.99 ± 0.29 | 3.9 ± 0.51 |  |  |
| REPVTKAEMLGSVVGNWQYFFPVI [MAGEA3] | 2.17 ± 0.18 | 2.25 ± 0.27 |  |  |
| PLPVSADDTPEVLNRALSNLSSRW [CDS2] | 3.82 ± 0.17 | 3.83 ± 0.19 |  |  |
| LVLYPTSLAIFSEELDGLCFKGEL [PLEKHN1] | 2.88 ± 0.58 | 2.96 ± 0.23 |  |  |
| QQVDTNISVILPTVHEVDIFRCFC [DENND6A] | 1.98 ± 0.31 | 2.24 ± 0.47 |  |  |
| KIVLCAVSHVFMLLFNVKSPTDIQ [RHOBTB3] | 3.16 ± 0.17 | 3.09 ± 0.22 |  |  |
| TGAHWMRQPVSFHRVKLTNSTLDP [TBX6] | 2.96 ± 0.074 | 3.02 ± 0.16 |  |  |
| QTEKLDTNITEVDAASVYTLPAGA [CASP6] | 5.02 ± 0.2 | 4.81 ± 0.12 |  |  |
| EHNSSLVSQQTGSPGKQPGENSDC [ZNF8] | 5.25 ± 0.3 | 5.39 ± 0.073 |  |  |
| MVGQKDSVILSVKFSPFGQWWASV [TLE6] | 2.95 ± 0.35 | 2.89 ± 0.35 |  |  |
| KLGPALKIYEYHVKPLQTKHLKNN [SAMD13] | 2.46 ± 0.14 | 2.54 ± 0.22 |  |  |
| NEKQLHTLRTCYAANPRPDALMKE [ISL2] | 4.05 ± 0.43 | 4.15 ± 0.53 |  |  |
| YGPQVNNISHTKEKKKGKAKKKRL [WASL] | 4.48 ± 0.34 | 4.68 ± 0.29 |  |  |
| AVETEGSGSRHPPWARGCGMFTFL [SLC2A12] | 2.11 ± 0.16 | 2.13 ± 0.28 |  |  |
| GTSALWRHLRSAHRRELESSGAGS [ZBED3] | 3.78 ± 0.57 | 4.1 ± 0.25 |  |  |
| RGNPELARLRPGLAVLGADERIFS [HAGHL] | 3.42 ± 0.47 | 3.65 ± 0.14 |  |  |

| Sequence | protein stability index [1] | protein stability index [2] | protein stability index (treatment: DMSO, c terminus: native) | protein stability index (treatment: MLN4924 1 uM, 8 h, c terminus: native) |
| --- | --- | --- | --- | --- |
| QVADINDNPPTFSQVSYFTYIPEN [PCDHGA10] | 2.98 ± 0.32 | 3.09 ± 0.3 |  |  |
| SSAGSVSPRSTSVTTTSSASVTTT [KRT13] | 5.25 ± 0.15 | 5.23 ± 0.12 |  |  |
| QPLEVKNNSNLQRMGSSESTDSGF [CDC25A] | 5.28 ± 0.23 | 5.06 ± 0.49 |  |  |
| LAWASYDQTGKEVADRWYSEIKNY [GLIPR2] | 2.87 ± 0.5 | 3.05 ± 0.23 |  |  |
| HRELLRLESRIRDVHELFLQMAVL [STX11] | 2.49 ± 0.33 | 2.4 ± 0.28 |  |  |
| TQLKIENNPFAKGFRGSDDMELHR [TBX5] | 4.04 ± 0.25 | 4.02 ± 0.67 |  |  |
| LRQQCAQVLRNNPDALSDVGEVPY [ELOA2] | 3.88 ± 0.21 | 3.93 ± 0.16 |  |  |
| RSDGKTCAKLDSCALGDHGCEHSC [MATN2] | 4.54 ± 0.31 | 4.59 ± 0.32 |  |  |
| KTCSRVDHCAQQDHGCEQLCLNTE [MATN2] | 4.77 ± 0.19 | 4.77 ± 0.21 |  |  |
| RRDGKWQNVHFHRSGSPTVPIKPP [CAMK2D] | 3.32 ± 0.27 | 3.54 ± 0.4 |  |  |
| MYGVDLHHAKDSEGVEIMLGVCAS [EPB41L3] | 2.71 ± 0.3 | 2.77 ± 0.51 |  |  |
| QVQSLITNVESQLAEIRCDLERQN [KRT34] | 3.43 ± 0.21 | 3.66 ± 0.33 |  |  |
| QQAMSLAILRVIRLVRVFRIFKLS [KCNA3] | 2.69 ± 0.26 | 2.63 ± 0.44 |  |  |
| ERCFRGSSYPVCVSKVVKGGSSGK [OAS1] | 3.84 ± 0.13 | 4.07 ± 0.12 |  |  |
| IFQEKHVNLLHIESRKSKRRNSEF [TPH1] | 3.06 ± 0.25 | 3.27 ± 0.28 |  |  |
| LANGRALSAGSPPVPPGWNPNSSS [DLX1] | 3.93 ± 0.22 | 4 ± 0.29 |  |  |
| QALQHVQASCDEAHKMKFSDLFSL [INTS3] | 2.86 ± 0.39 | 2.95 ± 0.33 |  |  |
| LEVEREAEKKREAKQRAKEAQERE [LRRC59] | 5.45 ± 0.42 | 5.63 ± 0.19 |  |  |
| RGRYRQYNSEILEEAISVVMSGKM [LCOR] | 2.54 ± 0.23 | 2.71 ± 0.29 |  |  |
| RVAKKLQSGLVWTNCWLIRELNLP [ALDH8A1] | 2.5 ± 0.38 | 2.37 ± 0.54 |  |  |
| AAVPDEIPPLEGDEDASRMEEVD [HSP90AB1] |  |  | 5.62 ± 0.27 | 5.68 ± 0.21 |
| RRPEDQELESLSAIEAELEKVAHQ [CHGA] | 5.15 ± 0.09 | 5.3 ± 0.24 |  |  |
